Measured values from the supplement of paper PMC9233669.
Variants at the floor of the assay were thinned out.

Columns and labels:
biotinyl-Ile-oxazolone = experiment: self-aminoacylation, catalytic enhancement (BIO) (fold over background); higher = more active; k-Seq, kA / k0A0; sequences stand for … in GGGAAUGGAUCCACAUCUACGAAUUC…UUCACUGCAGACUUGACGAAGCUG
How it was run: (§1)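 Each biotinyl-aminoacyl-oxazolone, at 2–1250 μM, was incubated with mutagenized RNA pools (0.43 μM) carrying a 21-nt variable region. The 50 μL reactions contained HEPES/NaCl/KCl/MgCl2/CaCl2 buffer with 5% acetonitrile at pH 6.9–7.0 and ran for 90 minutes at room temperature. After streptavidin capture, RNA was measured by qPCR in triplicate and by Illumina sequencing, and catalytic enhancement was calculated as median kA over the uncatalyzed rate from a pseudo-first-order fit of per-sequence fraction reacted.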

biotinyl-Leu-oxazolone = experiment: self-aminoacylation, catalytic enhancement (BLO) (fold over background); higher = more active; k-Seq, kA / k0A0; sequences stand for … in GGGAAUGGAUCCACAUCUACGAAUUC…UUCACUGCAGACUUGACGAAGCUG
How it was run: as §1

biotinyl-Met-oxazolone = experiment: self-aminoacylation, catalytic enhancement (BMO) (fold over background); higher = more active; k-Seq, kA / k0A0; sequences stand for … in GGGAAUGGAUCCACAUCUACGAAUUC…UUCACUGCAGACUUGACGAAGCUG
How it was run: as §1

biotinyl-Trp-oxazolone = experiment: self-aminoacylation, catalytic enhancement (BWO) (fold over background); higher = more active; k-Seq, kA / k0A0; sequences stand for … in GGGAAUGGAUCCACAUCUACGAAUUC…UUCACUGCAGACUUGACGAAGCUG
How it was run: as §1

biotinyl-Phe-oxazolone = experiment: self-aminoacylation, catalytic enhancement (BFO) (fold over background); higher = more active; k-Seq, kA / k0A0; sequences stand for … in GGGAAUGGAUCCACAUCUACGAAUUC…UUCACUGCAGACUUGACGAAGCUG
How it was run: as §1

biotinyl-Val-oxazolone = experiment: self-aminoacylation, catalytic enhancement (BVO) (fold over background); higher = more active; k-Seq, kA / k0A0; sequences stand for … in GGGAAUGGAUCCACAUCUACGAAUUC…UUCACUGCAGACUUGACGAAGCUG
How it was run: as §1

| Sequence | self-aminoacylation (biotinyl-Ile-oxazolone) | self-aminoacylation (biotinyl-Leu-oxazolone) | self-aminoacylation (biotinyl-Met-oxazolone) | self-aminoacylation (biotinyl-Trp-oxazolone) | self-aminoacylation (biotinyl-Phe-oxazolone) | self-aminoacylation (biotinyl-Val-oxazolone) |
| --- | --- | --- | --- | --- | --- | --- |
| AAGUUUGCAAAUAGUCGCAAC [Fam3.1 aminoacylation ribozyme variant] | 0.917 | 1.01 | 1.07 | 1.01 | 0.731 | 0.838 |
| AAGUUUGCAAAUAGUCGCUAG [Fam3.1 aminoacylation ribozyme variant] | 1.15 | 1 | 0.905 | 1.84 | 0.824 | 0.856 |
| AAGUUUGCAAUUAGUCGCAAG [Fam3.1 aminoacylation ribozyme variant] | 1.08 | 0.909 | 0.922 | 0.6 | 0.786 | 0.898 |
| AAGUUUGCCAAAAGUCGCAAG [Fam3.1 aminoacylation ribozyme variant] | 1.41 | 1.57 | 1.39 | 1.54 | 1.01 | 1.36 |
| AAGUUUGCCAAUAGUCGCCAG [Fam3.1 aminoacylation ribozyme variant] | 1.52 | 2.4 | 2.27 | 2.22 | 12.8 | 1.54 |
| AAGUUUGCCAAUAGUCGCUAG [Fam3.1 aminoacylation ribozyme variant] | 1.15 | 0.951 | 0.716 | 2.08 | 0.897 | 0.926 |
| AAGUUUGCGAAUACUCGCAAG [Fam3.1 aminoacylation ribozyme variant] | 1.36 | 1.4 | 1.13 | 2.24 | 3.35 | 0.993 |
| AAGUUUGCGAAUAGUCGCCAG [Fam3.1 aminoacylation ribozyme variant] | 1.74 | 1.29 | 1.8 | 1.62 | 9.03 | 1.78 |
| AAGUUUGCGAAUAGUCGCUAG [Fam3.1 aminoacylation ribozyme variant] | 1.38 | 0.918 | 1.45 | 1.4 | 3.9 | 1 |
| AAGUUUGCGAAUAGUCGGAAG [Fam3.1 aminoacylation ribozyme variant] | 0.977 | 1.1 | 1.38 | 2.32 | 0.764 | 0.964 |
| AAGUUUGCGAAUUGUCGCAAG [Fam3.1 aminoacylation ribozyme variant] | 1.77 | 1.94 | 2.15 | 2.19 | 6.83 | 2.23 |
| AAGUUUGCGAGUAGUCGCAAG [Fam3.1 aminoacylation ribozyme variant] | 1.12 | 1.22 | 0.918 | 1.32 | 1.71 | 0.882 |
| AAGUUUGCUAAAACUCGCAAG [Fam3.1 aminoacylation ribozyme variant] | 0.916 | 0.998 | 0.668 | 0.796 | 0.521 | 0.821 |
| AAGUUUGCUAAAAGUAGCAAG [Fam3.1 aminoacylation ribozyme variant] | 1.02 | 0.818 | 1.16 | 1.03 | 1.04 | 0.783 |
| AAGUUUGCUAAAAGUCGCAAG [Fam3.1 aminoacylation ribozyme variant] | 1.24 | 1.01 | 1.33 | 4.97 | 17.1 | 1.08 |
| AAGUUUGCUAACAGACGCAAG [Fam3.1 aminoacylation ribozyme variant] | 0.512 | 0.38 | 0.478 | 0.444 | 1.06 | 0.733 |
| AAGUUUGCUAACAGUCGCAUG [Fam3.1 aminoacylation ribozyme variant] | 0.963 | 0.89 | 0.804 | 1.11 | 0.642 | 0.899 |
| AAGUUUGCUAACAGUCGCUAG [Fam3.1 aminoacylation ribozyme variant] | 0.756 | 0.823 | 0.738 | 0.96 | 1.36 | 0.899 |
| AAGUUUGCUAAGAGGCGCAAG [Fam3.1 aminoacylation ribozyme variant] | 0.727 | 0.547 | 0.759 | 0.895 | 1.21 | 0.656 |
| AAGUUUGCUAAGAGUCCCAAG [Fam3.1 aminoacylation ribozyme variant] | 0.788 | 0.765 | 0.787 | 1 | 1.48 | 0.672 |
| AAGUUUGCUAAGAGUCGCAAC [Fam3.1 aminoacylation ribozyme variant] | 1.21 | 1.27 | 1.07 | 1.28 | 0.845 | 1.19 |
| AAGUUUGCUAAGAGUCGCACG [Fam3.1 aminoacylation ribozyme variant] | 1.17 | 0.977 | 0.636 | 2.06 | 5.94 | 1.12 |
| AAGUUUGCUAAGAGUCUCAAG [Fam3.1 aminoacylation ribozyme variant] | 0.81 | 0.775 | 0.651 | 1.01 | 1.02 | 0.823 |
| AAGUUUGCUAAUAAUCCCAAG [Fam3.1 aminoacylation ribozyme variant] | 0.76 | 0.736 | 0.949 | 1.38 | 1.03 | 0.961 |
| AAGUUUGCUAAUACUAGCAAG [Fam3.1 aminoacylation ribozyme variant] | 0.59 | 0.722 | 0.798 | 0.476 | 0.734 | 0.567 |
